Experimental data: the supplement of paper PMC9170038

Tested on: MS2 coat protein
Assay: apparent KD of MS2 coat protein; designed switch direction (-1 OFF switch, 1 ON switch): -1; higher = weaker reporter binding
In short: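 Designed RNA switches with common flanks were transcribed on Illumina chips by stalled E. coli RNA polymerase and titrated with SNAP-549-labelled MS2 coat protein, from 0.7 or 1.5 nM doubling to 3 µM, in Tris-HCl pH 7.5 buffer with KCl, MgCl2, BSA, DTT, tRNA and Tween-20. Steps lasted 0.8–1.5 h (lowest) to 10–20 min (highest). Titrations ran without input, with 200 uM small-molecule ligand, or with an oligonucleotide input. Normalised cluster fluorescence was curve-fitted, and apparent KD is the per-design median over clusters.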

[1] = Eterna round: R95, input ligand: FMN 200 uM
[2] = Eterna round: R95, input ligand: microRNA oligo, concentration not stated
[3] = Eterna round: R95, input ligand: none
[4] = input ligand: microRNA oligo, concentration not stated

| Sequence | apparent KD of MS2 coat protein [2] | apparent KD of MS2 coat protein (input ligand: FMN 200 uM) | apparent KD of MS2 coat protein (input ligand: none) | other results |
| --- | --- | --- | --- | --- |
| UAUUACAAGCGAGAUCCUAACAUGAGGAUCACCCAUGUGCUCGUCUCAUAUAGGACUAUCACGAAAGUGAUAGUCCA [Level Boss var2-01] (puzzle: Sensor v3, turn-off variant 1) | 140 nM |  |  | apparent KD of MS2 coat protein [1]: 21.5 nM; apparent KD of MS2 coat protein [3]: 15.2 nM |
| UAUUAGAGAGGAUAUAUGAUGUGAAACAUGAGGAUCACCCAUGUAAUAUUAUGGAUGUAAAUAGAAGGCUCAUUUA [Mat - Exclusion 5 - JL mod - D15] (puzzle: Exclusion 5) | 77.5 nM |  |  | apparent KD of MS2 coat protein [1]: 47.4 nM; apparent KD of MS2 coat protein [3]: 80.2 nM |
| UAUUAGCAAGCAAGAUCCCACAUGAGGAUCACCCAUGUGCUCGUCUUAAGCCCAGAAUUACUGGGCGCUCGUCUUAU [Winner reversed engineered 22] (Eterna round: R97, puzzle: Sensor, turn-off variant 1) |  | 30.3 nM | 28.4 nM |  |
| UAUUAGCAAGCGAGAUCCCACAUGAGGAUCACCCAUGUAAUAAAAGCAUCCAGAAUUACUGGGUGCGCUCGUCUUAU [Winner reversed engineered 14] (Eterna round: R97, puzzle: Sensor, turn-off variant 1) |  | 47.7 nM | 49.5 nM |  |
| UAUUAGCAAGCGAGAUCCCACAUGAGGAUCACCCAUGUGCAUCCAGAAUUACUGGGUGCAAAAGCUCGUCUUAUAUA [Winner reversed engineered 2] (Eterna round: R97, puzzle: Sensor, turn-off variant 1) |  | 62.4 nM | 58.1 nM |  |
| UAUUAGCAAGCGAGAUCCCACAUGAGGAUCACCCAUGUGCUCGUCUUAUAAAAGACUGUGACAAAAGUCACGGUCAC [Sensor 3, v1 - 91 v5] (Eterna round: R97, puzzle: Sensor, turn-off variant 1) |  | 15.9 nM | 15.1 nM |  |
| UAUUAGCAAGUAAGGUCCCACAUGAGGAUCACCCAUGUGCUCGUCUUAUAAGGUACUGUGACGAAAGUCACGGUACC [Sensor 3, v1 - 95] (Eterna round: R96, puzzle: Sensor v3, turn-off variant 1) |  | 22 nM | 23.6 nM | apparent KD of MS2 coat protein [4]: 326 nM |
| UAUUAGCAAGUAAGGUCCCACAUGAGGAUCACCCAUGUGCUCGUCUUAUAAGGUACUGUGACGAAAGUCACGGUACC [Sensor 3, v1 - 95] (puzzle: Sensor v3, turn-off variant 1) | 585 nM |  |  | apparent KD of MS2 coat protein [1]: 18.4 nM; apparent KD of MS2 coat protein [3]: 18.1 nM |
| UAUUAGCAAGUGAGAUCCCACAUGAGGAUCACCCAUGUGCUCGUCUUAUAAGGUACUGUGACGAAAGUCACGGUACC [Sensor 3, v1 - 91 v1] (Eterna round: R97, puzzle: Sensor, turn-off variant 1) |  | 56.2 nM | 47.6 nM |  |
| UAUUAGCAAGUGAGAUCCGACAUGAGGAUCACCCAUGUGCUCGUCUUAUAAGGUACUGUGACAAAAGUCACGGUACC [Elimod 2 - Jieux - Sensor, turn-off variant 1] (Eterna round: R97, puzzle: Sensor, turn-off variant 1) |  | 200 nM | 283 nM |  |
| UAUUAUUGCAAGGAUAUGCUUUUUAUUUCUUUUGCAGAAGGUGCAACAUGAGGAUCACCCAUGUUUCCGGGUAU [JR_E6_Sub033] (puzzle: Exclusion 6) | 20.4 nM |  |  |  |
| UAUUUAAUUAACAAGCUUUACAUGAGGAUCACCCAUGUGAUCAUGCUCGUCUUAUAAUUAAUUAAUUAAUUAAUUAA [Stov1/6-A2] (Eterna round: R97, puzzle: Sensor, turn-off variant 1) |  | 51.6 nM | 62.8 nM |  |
| UAUUUAGCAAGCAGAUCCCACAUGAGGAUCACCCAUGUUUUCUGAAAAUAAAUUAAAAUAGCUGAAGCUCGUCUUAU [Winner reversed engineered 38] (Eterna round: R97, puzzle: Sensor, turn-off variant 1) |  | 139 nM | 137 nM |  |
| UAUUUAUAUGAAGGAUAUACUUAACAUGAGGAUCACCCAUGUGGUGUUGUGAGUGAGUGAGUUUAGUAGAAGGUCAAUGAUUUU [JMF's solution 74] (Eterna round: R96, puzzle: Exclusion NG 2) |  | 870 nM | 311 nM | apparent KD of MS2 coat protein [4]: 286 nM |
| UCAACGCAAGGAUAUACUUGCGGUGAUGUUCGAAUUCUUCUACUUGAGGAUCACCCAAGUAGAAGGUGCGAUGA [jl-ex2.4.62 ViennaUCT mod] (Eterna round: R97, puzzle: Exclusion 2) |  | 12.5 nM | 13.4 nM |  |
| UCAAUUUUGCGAGGAUAUCGACCAUUCCUCUUUACAUGAGGAUCACCCAUGUACUUAUUCUACAACGAGAAGGCGCUCAUAGUU [JR_ExcNG2_Sub064] (Eterna round: R96, puzzle: Exclusion NG 2) |  |  |  | apparent KD of MS2 coat protein [4]: 30 nM |
| UCAAUUUUGCGAGGAUAUCGACCAUUCCUCUUUACAUGAGGAUCACCCAUGUUCUUUUUCUACAACGAGAAGGCGCUCAUAGUU [JR_ExcNG2_Sub063] (Eterna round: R96, puzzle: Exclusion NG 2) |  |  |  | apparent KD of MS2 coat protein [4]: 56.2 nM |

| Sequence | apparent KD of MS2 coat protein [2] | apparent KD of MS2 coat protein (input ligand: FMN 200 uM) | apparent KD of MS2 coat protein (input ligand: none) | other results |
| --- | --- | --- | --- | --- |
| UCACGGGACUAAGGAUAUAUGAGAGCCAUUAACAUAGAAGGUAGAAUGUUAGAUCAUAAACUAAACAUGAGGAUCACCCAUGUU [JR_ExcNG1_Sub093] (Eterna round: R96, puzzle: Exclusion NG 1) |  | 19.6 nM | 23.2 nM | apparent KD of MS2 coat protein [4]: 20.2 nM |
| UCACGGGACUGAGGAUAUACAUGAACCAUGUUUGUAGAAGGCAGAAGGUUUGAUCAUACACUAAACAUGAGGAUCACCCAUGUU [JR_ExcNG1_Sub027] (Eterna round: R96, puzzle: Exclusion NG 1) |  | 21.1 nM | 25.1 nM | apparent KD of MS2 coat protein [4]: 15.1 nM |
| UCACGGGAUUGAGGAUAUAUAUUAAUUUUUACAAUAGAAGGCAAAUUGUUAGAUUAUUCACUAUACAUGAGGAUCACCCAUGUU [JR_ExcBG1_Sub078] (Eterna round: R96, puzzle: Exclusion NG 1) |  |  |  | apparent KD of MS2 coat protein [4]: 17.6 nM |
| UCACGGGAUUGAGGAUAUAUAUUAAUUUUUUUUAUAGAAGGCAAAAUGUUAGAUUAUUCACUAUACAUGAGGAUCACCCAUGUU [JR_ExcBG1_Sub076] (Eterna round: R96, puzzle: Exclusion NG 1) |  |  |  | apparent KD of MS2 coat protein [4]: 18.2 nM |
| UCACGGGUUUGAGGAUAUAUAUUUAUUAUUUUAAUAGAAGGCAAAGAGAUAGUUUUUUCACUAUACAUGAGGAUCACCCAUGUU [JR_ExcNG1_Sub087] (Eterna round: R96, puzzle: Exclusion NG 1) |  |  |  | apparent KD of MS2 coat protein [4]: 27.6 nM |
| UCACGUACAGGAUAUACAUGAGGAUCACCCAUGUGCUCGAAGGCACGCCCGAGAUUCUGUAGAAGGGUAUAGCA [Eternabot (L1) Solution 50] (Eterna round: R97, puzzle: Exclusion 3) |  | 38.4 nM | 32.5 nM |  |
| UCAUAACAUGAGGAUCACCCAUGUGAGGAUAUGAUACUAUGUACUUCGGUACAUAGUAUCAGAAGGCGCAUACU [Brourd's Ex1-3: 11 (nt 68 G)] (puzzle: Exclusion 1) | 55.2 nM |  |  | apparent KD of MS2 coat protein [1]: 115 nM; apparent KD of MS2 coat protein [3]: 49.1 nM |
| UCAUACGAUGAGGAUAUCUCAGUUAAAGUAUUUAGAGAAGGCGUUACAUGAGGAUCACCCAUGUUUAUGGGCAU [Ex-6 Malc#7] (puzzle: Exclusion 6) | 121 nM |  |  | apparent KD of MS2 coat protein [1]: 178 nM; apparent KD of MS2 coat protein [3]: 190 nM |
| UCAUACGGUGAGGAUAUCUCCACUAAAGUGUGAAGAGAAGGCGCUACAUGAGGAUCACCCAUGUCUAUGGGCAG [Ex-6 Malc#15] (puzzle: Exclusion 6) | 75 nM |  |  | apparent KD of MS2 coat protein [1]: 37.4 nM; apparent KD of MS2 coat protein [3]: 109 nM |
| UCAUCCGUAGGAUAUAAGAAACACAACAUGAGGAUCACCCAUGUGACCGUCAGUUAUUGCUUAGAAGGACGCGUAC [Eternabot (L1) Solution 70] (Eterna round: R97, puzzle: Exclusion 5) |  | 131 nM | 91.2 nM |  |
| UCAUGGAAGCAGGAUAUGCUUGUUUAAUUGUUUGCAGAAGGGCUAACAUGAGGAUCACCCAUGUGAGAGGUCUA [JR_E6_Sub064] (puzzle: Exclusion 6) | 33.8 nM |  |  | apparent KD of MS2 coat protein [1]: 20.5 nM; apparent KD of MS2 coat protein [3]: 36.7 nM |
| UCAUGGUAGCAGGAUAUGCUUGUUUUUUUUUUUGCAGAAGGGCUUACAUGAGGAUCACCCAUGUGAGAGGUCUA [JR_E6_Sub066] (puzzle: Exclusion 6) | 19.9 nM |  |  |  |
| UCAUGGUUAGAGGAUAUAUAAUUAGUCAGAACAAUAGAAGGCUAGACAUGAGGAUCACCCAUGUAUGUUGAGGU [JR_Ex6_Sub065] (Eterna round: R97, puzzle: Exclusion 6) |  | 42.6 nM | 89.4 nM |  |
| UCCUCACAUGAGGAUCACCCAUGUUAGGAUAUCUCGGUGCCCUGCAGGCAGUGGCACCAGAGAAGGAACGUGCA [Querra] (puzzle: Exclusion 1) | 18.8 nM |  |  |  |
| UCCUUACUGGUCAGGAUAUACAUUCGCGAGUGGGUGUAGAAGGGACAUGAGGAUCACCCAUGUACGUUACAUCC [alecazam54f] (Eterna round: R97, puzzle: Brourd's mod of Exclusion 4) |  | 18.3 nM | 20.5 nM |  |
| UCGACGUCGUCAGGAUAUAGUUUUAAUGUCAUGCUUUUGUUUUUACAUGAGGAUCACCCAUGUCGCUAGAAGGGACUAAAGAUU [JR_ExcNG2_Sub013] (Eterna round: R96, puzzle: Exclusion NG 2) |  | 36.7 nM | 41.7 nM | apparent KD of MS2 coat protein [4]: 34.1 nM |
| UCGAGGUCAGGAUAUACAUGAGGAUCACCCAUGUUGAGAUAAGGUAGGAAAAGAGUAGGUAGAAGGGACGAGAG [JR_Exclu3_Sub047] (puzzle: Exclusion 3) | 27.3 nM |  |  |  |
